Results as given in patent publication US20180118786A1 (published 2018).
Starred links: 1 amine or outer side, 2 acyl side, 3 side chain; linkers in the order of their positions; H or OH if unused. Positions of bridges follow the written chain, without caps; N, C: chain ends. Non-standard residues stand in square brackets, D forms with d. No end group written: not given here. TATA = O=C(CC[*:1])N1CN(C(=O)CC[*:2])CN(C(=O)CC[*:3])C1; βAla = NCCC(=O)O

B1: peptide 21 (peptide 2, Gln9 to aspartate) (peptide)
peptide: RCFRLPCRDLRCRW-NH2
modifications: linker 2-7-12 via TATA; N-terminus assumed
SMILES: CC(C)C[C@@H]1NC(=O)[C@H](CC(=O)O)NC(=O)[C@H](CCCNC(=N)N)NC(=O)[C@@H]2CSCCC(=O)N3CN(CN(C3)C(=O)CCSC[C@H](NC(=O)[C@@H](N)CCCNC(=N)N)C(=O)N[C@@H](Cc3ccccc3)C(=O)N[C@@H](CCCNC(=N)N)C(=O)N[C@@H](CC(C)C)C(=O)N3CCC[C@H]3C(=O)N2)C(=O)CCSC[C@@H](C(=O)N[C@@H](CCCNC(=N)N)C(=O)N[C@@H](Cc2c[nH]c3ccccc23)C(N)=O)NC(=O)[C@H](CCCNC(=N)N)NC1=O
B2: peptide 83 (FXII618, Arg8 to glycine) (peptide)
peptide: RCFRLPCGQLRCR-NH2
modifications: linker 2-7-12 via TATA; N-terminus assumed
SMILES: CC(C)C[C@@H]1NC(=O)[C@H](CCC(N)=O)NC(=O)CNC(=O)[C@@H]2CSCCC(=O)N3CN(CN(C3)C(=O)CCSC[C@H](NC(=O)[C@@H](N)CCCNC(=N)N)C(=O)N[C@@H](Cc3ccccc3)C(=O)N[C@@H](CCCNC(=N)N)C(=O)N[C@@H](CC(C)C)C(=O)N3CCC[C@H]3C(=O)N2)C(=O)CCSC[C@@H](C(=O)N[C@@H](CCCNC(=N)N)C(N)=O)NC(=O)[C@H](CCCNC(=N)N)NC1=O
B3: FXII618 variant with P in position six replaced by S (peptide)
peptide: RCFRLSCRQLRCRW-NH2
modifications: linker 2-7-12 via TATA; N-terminus assumed
SMILES: CC(C)C[C@@H]1NC(=O)[C@H](CCC(N)=O)NC(=O)[C@H](CCCNC(=N)N)NC(=O)[C@@H]2CSCCC(=O)N3CN(CN(C3)C(=O)CCSC[C@H](NC(=O)[C@@H](N)CCCNC(=N)N)C(=O)N[C@@H](Cc3ccccc3)C(=O)N[C@@H](CCCNC(=N)N)C(=O)N[C@@H](CC(C)C)C(=O)N[C@@H](CO)C(=O)N2)C(=O)CCSC[C@@H](C(=O)N[C@@H](CCCNC(=N)N)C(=O)N[C@@H](Cc2c[nH]c3ccccc23)C(N)=O)NC(=O)[C@H](CCCNC(=N)N)NC1=O
B4: peptide 18 (peptide 2, Pro6 to leucine) (peptide)
peptide: RCFRLLCRQLRCRW-NH2
modifications: linker 2-7-12 via TATA; N-terminus assumed
SMILES: CC(C)C[C@@H]1NC(=O)[C@H](CCC(N)=O)NC(=O)[C@H](CCCNC(=N)N)NC(=O)[C@@H]2CSCCC(=O)N3CN(CN(C3)C(=O)CCSC[C@H](NC(=O)[C@@H](N)CCCNC(=N)N)C(=O)N[C@@H](Cc3ccccc3)C(=O)N[C@@H](CCCNC(=N)N)C(=O)N[C@@H](CC(C)C)C(=O)N[C@@H](CC(C)C)C(=O)N2)C(=O)CCSC[C@@H](C(=O)N[C@@H](CCCNC(=N)N)C(=O)N[C@@H](Cc2c[nH]c3ccccc23)C(N)=O)NC(=O)[C@H](CCCNC(=N)N)NC1=O
B5: peptide 15 (peptide 2, Pro6 to alanine) (peptide)
peptide: RCFRLACRQLRCRW-NH2
modifications: linker 2-7-12 via TATA; N-terminus assumed
SMILES: CC(C)C[C@@H]1NC(=O)[C@H](CCCNC(=N)N)NC(=O)[C@H](Cc2ccccc2)NC(=O)[C@@H](NC(=O)[C@@H](N)CCCNC(=N)N)CSCCC(=O)N2CN3CN(C2)C(=O)CCSC[C@@H](C(=O)N[C@@H](CCCNC(=N)N)C(=O)N[C@@H](Cc2c[nH]c4ccccc24)C(N)=O)NC(=O)[C@H](CCCNC(=N)N)NC(=O)[C@H](CC(C)C)NC(=O)[C@H](CCC(N)=O)NC(=O)[C@H](CCCNC(=N)N)NC(=O)[C@H](CSCCC3=O)NC(=O)[C@H](C)NC1=O

Legend:
[1] = molecular target: T1, human β-FXIIa (HFXIIAB; Molecular Innovations) (human, UniProt P00748 354-362; P00748 373-615); experiment: enzyme inhibition; TATA-cyclized
T1 chain 1: NGPLSCGQR
T1 chain 2: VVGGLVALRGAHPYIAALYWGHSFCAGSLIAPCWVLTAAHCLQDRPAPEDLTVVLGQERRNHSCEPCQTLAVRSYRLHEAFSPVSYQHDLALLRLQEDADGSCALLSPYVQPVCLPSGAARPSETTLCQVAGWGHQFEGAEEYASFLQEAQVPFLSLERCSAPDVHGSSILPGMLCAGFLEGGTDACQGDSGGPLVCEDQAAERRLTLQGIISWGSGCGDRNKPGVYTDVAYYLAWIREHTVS

[2] = molecular target: T1, human β-FXIIa (HFXIIAB; Molecular …); experiment: enzyme inhibition
[3] = molecular target: T1, human β-FXIIa (HFXIIAB; Molecular …); experiment: enzyme inhibition
[4] = molecular target: T1, human β-FXIIa (HFXIIAB; Molecular …); experiment: enzyme inhibition

| Binder | Ki [1] [nM] | Ki [2] [nM] | other results |
| --- | --- | --- | --- |
| GCCYLRYLCS [FXII513] | 350 |  |  |
| RCFRLPCAQLRCR [FXII617] |  | 25 |  |
| ACWGACQNVCR [FXII506] | 6300 |  |  |
| LCPRLSCHQLGCS [FXII515] | 2500 |  |  |
| RCWYGCVPQCY [FXII509] | 1000 |  |  |
| RCFRLPCRQLRCA [FXII616] |  | 31 |  |
| B1 |  |  | Ki [3]: 1400 nM |
| RCFRLNCRQLRCR [Pro6 Asparagine (19)] |  |  | Ki [4]: 264 nM |
| RCFRLPC[βAla]QLRCR-NH2 (linker 2-7-12 via TATA; not fully specified) [peptide 82 (FXII618, Arg8 to β-alanine)] |  |  | Ki [3]: 755 nM |
| RCFRLDCRQLRCR [Pro6 Aspartic acid (20)] |  |  | Ki [4]: 307 nM |
| RCFRLVCRQLRCR [Pro6 Valine (17)] |  |  | Ki [4]: 119 nM |
| VCWGACLNVCP [FXII504] | 1900 |  |  |
| RCFRLPCRHLRCR [Gln9 Histidine (24)] |  |  | Ki [3]: > 10000 nM |
| RCFRLPCSQLSCE [FXII613] |  | 62 |  |
| RCPRLPCAQLRCE [FXII609] |  | 123 |  |
| LCSRLPCEQLPCN [FXII514] | 10200 |  |  |

| Binder | Ki [1] [nM] | Ki [2] [nM] | other results |
| --- | --- | --- | --- |
| B2 |  |  | Ki [3]: 52 nM |
| B3 |  |  | Ki [4]: 75 nM |
| RCFRLPCRELRCR [Gln9 Glutamic acid (23)] |  |  | Ki [3]: > 10000 nM |
| B4 |  |  | Ki [4]: 20 nM |
| RCFRLPCAQLRCE [FXII608] |  | 44 |  |
| RCFRLPCWQLSCE [FXII615] |  | 246 |  |
| ACWGAALSCNPQGSRCG [FXII527] | 8500 |  |  |
| RCPRLPCAQLSCE [FXII607] |  | 985 |  |
| RCFRLPCEQLSCE [FXII612] |  | 63 |  |
| RCFRLPCRQLSCE [FXII614] |  | 39 |  |
| ACWGAASACQQGGAKCG [FXII534] | 2400 |  |  |
| ACFRLPCAQLSCE [FXII610] |  | 231 |  |
| RCWGACLNVCS [FXII502] | 1200 |  |  |
| B5 |  |  | Ki [4]: 50 nM |
| ACWGAAQRCKVMQGECG [FXII528] | 3700 |  |  |
| RCFRLPCRNLRCR [Gln9 Asparagine (22)] |  |  | Ki [3]: 2550 nM |
